Blank lines part the entries; values can stand above or below the binder they belong to.
Assays:
Settings in all cases: both partners purified
[1] = target: T1, TRPA1 N-terminal cytosolic region (aa 1-721), GST-tagged (mouse, UniProt Q8BLA8 1-721); assay: pull-down; TRP sequence (100 nM) covalently attached to NHS-activated Sepharose 4FF; prey 200 nM; 200 µL 50 mM Tris-HCl pH 7.5, 0.2% CHAPS, with 3 mM CaCl2; 30 min at RT, three washes; Western blot
T1 construct: transient receptor potential ankyrin member 1, mouse, NP_808449, residues 1-721; Vector carries GST/HaloTag and a TEV site; also called TRPA1 N-terminus; TRPA1 N-terminal domain; source: E. coli BL21 (KRX), purified (GStrap FF or HaloLink Resin); not shown: GST, N-terminal, kept

[2] = target: T2, TRPM8 N-terminal cytosolic region (aa 1-639), GST-tagged (mouse, UniProt Q8R4D5 1-639); assay: as above
T2 construct: transient receptor potential melastatin member 8, mouse, NP_599013, residues 1-639; also called TRPM8 N-terminus; source: E. coli BL21 (KRX), purified (GStrap FF or HaloLink Resin); not shown: GST, N-terminal, kept

[3] = target: T1, TRPA1 N-terminal cytosolic region (aa …); assay: pull-down; competition: immobilised TRP sequence with CaM or HINT1 and increasing concentrations of σ1R (up to 200 nM), 3 mM CaCl2; bound CaM or HINT1 by Western blot, relative to no σ1R

binding result [1]: binds
binding result [2]: binds
B1: sigma 1 receptor (σ1R), full-length murine, GST-free (natural protein, mouse, UniProt O55242 1-223, looked up)
chain: MPWAAGRRWAWITLILTIIAVLIQAAWLWLGTQNFVFSREEIAQLARQYAGLDHELAFSRLIVELRRLHPGHVLPDEELQWVFVNAGGWMGAMCILHASLSEYVLLFGTALGSHGHSGRYWAEISDTIISGTFHQWKEGTTKSEVFYPGETVVHGPGEATALEWGPNTWMVEYGRGVIPSTLFFALADTFFSTQDYLTLFYTLRAYARGLRLELTTYLFGQDS
notes: sigma 1 receptor, mouse, GenBank AF004927, coding region of the full-length protein; 223 amino acids; also called type 1 sigma receptor; source: E. coli BL21 (KRX), purified (GStrap FF or HaloLink Resin, cleaved with ProTEV protease, ion exchange); not shown: GST, N-terminal, cleaved

binding result [3]: binds
binding result [2]: binds
B2: histidine triad nucleotide-binding protein 1 (HINT1), murine, GST-free (natural protein, mouse, UniProt P70349 1-126, looked up)
chain: MADEIAKAQVAQPGGDTIFGKIIRKEIPAKIIFEDDRCLAFHDISPQAPTHFLVIPKKHISQISVADDDDESLLGHLMIVGKKCAADLGLKRGYRMVVNEGADGGQSVYHIHLHVLGGRQMNWPPG
notes: source: E. coli BL21 (KRX), purified (GStrap FF or HaloLink Resin, cleaved with ProTEV protease, ion exchange); not shown: GST, N-terminal, cleaved
